Numbered stars: 1 amine (or outer) side, 2 acyl side, 3 side chain; on linkers, the order of the positions; unused ones are H or OH. Bridge positions count the residues as written; N and C are the ends. Side chains are listed from the residue outwards. Ends that are not written are not given here. * marks the point of attachment. C20 diacid = O=C(O)CCCCCCCCCCCCCCCCCCC(=O)*; γGlu = O=C(O)[C@H](CCC(=O)[*:2])N[*:1]; AEEA = NCCOCCOCC(=O)O
T1: human calcitonin receptor (human, UniProt P30988 25-474)
T1 construct: whole, on cells; Cell membranes of a stably transfected BHK cell line (Assay VII); also called hCTR; hCT
T1 sequence (looked up): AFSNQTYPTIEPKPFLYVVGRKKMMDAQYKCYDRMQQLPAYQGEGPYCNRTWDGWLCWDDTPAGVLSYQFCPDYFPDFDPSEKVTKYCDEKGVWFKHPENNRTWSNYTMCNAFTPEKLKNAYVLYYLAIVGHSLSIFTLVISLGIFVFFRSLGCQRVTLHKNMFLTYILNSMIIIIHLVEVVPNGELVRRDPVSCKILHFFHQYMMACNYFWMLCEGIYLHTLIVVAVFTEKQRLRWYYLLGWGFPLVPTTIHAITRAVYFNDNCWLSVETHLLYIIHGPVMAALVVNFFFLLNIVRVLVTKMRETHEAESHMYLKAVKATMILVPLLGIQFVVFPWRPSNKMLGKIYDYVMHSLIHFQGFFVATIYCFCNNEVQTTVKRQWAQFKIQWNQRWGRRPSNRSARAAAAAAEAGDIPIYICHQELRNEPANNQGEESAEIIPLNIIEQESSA

T2: rat calcitonin receptor (rat, UniProt P32214 25-516)
T2 construct: whole, on cells; Cell membranes of transiently transfected BHK tk'ts 13 cells (Assay VIII); also called rCTR; rCT
T2 sequence (looked up): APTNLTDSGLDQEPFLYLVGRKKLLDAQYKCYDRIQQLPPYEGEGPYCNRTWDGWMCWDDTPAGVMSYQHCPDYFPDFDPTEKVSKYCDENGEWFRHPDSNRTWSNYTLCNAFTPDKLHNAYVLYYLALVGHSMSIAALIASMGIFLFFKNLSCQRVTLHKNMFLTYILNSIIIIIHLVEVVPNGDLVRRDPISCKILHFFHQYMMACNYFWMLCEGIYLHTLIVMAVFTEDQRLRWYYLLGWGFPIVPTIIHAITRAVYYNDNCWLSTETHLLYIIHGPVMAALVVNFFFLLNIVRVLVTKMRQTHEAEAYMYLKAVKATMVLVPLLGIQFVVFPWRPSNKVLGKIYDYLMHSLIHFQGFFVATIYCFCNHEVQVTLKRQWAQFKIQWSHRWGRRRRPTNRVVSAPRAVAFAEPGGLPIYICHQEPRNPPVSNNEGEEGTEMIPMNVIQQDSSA

T3: rat amylin receptor (rat calcitonin receptor + rat RAMP 3) (rat, UniProt P32214 25-516; Q9JJ73 23-147)
T3 construct: whole, on cells; Cell membranes of transiently transfected BHK tk'ts 13 cells (Assay VI); also called rAmylin-R; rat amylin 3(a) receptor
T3 sequence (looked up) 1: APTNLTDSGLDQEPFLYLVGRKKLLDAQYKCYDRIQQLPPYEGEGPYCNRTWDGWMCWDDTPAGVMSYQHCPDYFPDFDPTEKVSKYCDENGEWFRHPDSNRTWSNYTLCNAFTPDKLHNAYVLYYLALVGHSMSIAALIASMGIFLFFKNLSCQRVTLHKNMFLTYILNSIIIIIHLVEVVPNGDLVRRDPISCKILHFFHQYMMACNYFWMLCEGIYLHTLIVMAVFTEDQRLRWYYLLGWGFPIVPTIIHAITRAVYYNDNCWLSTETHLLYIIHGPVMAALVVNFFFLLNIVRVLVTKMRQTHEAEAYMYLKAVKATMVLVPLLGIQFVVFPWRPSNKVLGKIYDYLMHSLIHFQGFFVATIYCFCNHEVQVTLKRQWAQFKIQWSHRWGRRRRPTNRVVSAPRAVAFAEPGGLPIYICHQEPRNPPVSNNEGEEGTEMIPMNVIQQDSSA
T3 sequence (looked up) 2: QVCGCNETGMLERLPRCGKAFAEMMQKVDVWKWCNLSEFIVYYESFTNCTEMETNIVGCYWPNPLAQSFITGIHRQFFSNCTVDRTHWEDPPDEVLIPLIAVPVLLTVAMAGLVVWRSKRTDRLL

B1: N^α1N^α1-[(4S)-4-carboxy-4-(19-carboxynonadecanoylamino)butanoyl]-[Glu14,Arg17,Pro21,Pro27,Glu35]-h-amylin (peptide)
peptide: {C20 diacid-γGlu}-KCNTATCATQRLAEFLRHSSPNFGAIPSSTNVGSETY-NH2
modifications: disulfide 2-7
SMILES: CC[C@H](C)[C@H](NC(=O)[C@H](C)NC(=O)CNC(=O)[C@H](Cc1ccccc1)NC(=O)[C@H](CC(N)=O)NC(=O)[C@@H]1CCCN1C(=O)[C@H](CO)NC(=O)[C@H](CO)NC(=O)[C@H](Cc1c[nH]cn1)NC(=O)[C@H](CCCNC(=N)N)NC(=O)[C@H](CC(C)C)NC(=O)[C@H](Cc1ccccc1)NC(=O)[C@H](CCC(=O)O)NC(=O)[C@H](C)NC(=O)[C@H](CC(C)C)NC(=O)[C@H](CCCNC(=N)N)NC(=O)[C@H](CCC(N)=O)NC(=O)[C@@H](NC(=O)[C@H](C)NC(=O)[C@@H]1CSSC[C@H](NC(=O)[C@H](CCCCN)NC(=O)CC[C@H](NC(=O)CCCCCCCCCCCCCCCCCCC(=O)O)C(=O)O)C(=O)N[C@@H](CC(N)=O)C(=O)N[C@@H]([C@@H](C)O)C(=O)N[C@@H](C)C(=O)N[C@@H]([C@@H](C)O)C(=O)N1)[C@@H](C)O)C(=O)N1CCC[C@H]1C(=O)N[C@@H](CO)C(=O)N[C@@H](CO)C(=O)N[C@H](C(=O)N[C@@H](CC(N)=O)C(=O)N[C@H](C(=O)NCC(=O)N[C@@H](CO)C(=O)N[C@@H](CCC(=O)O)C(=O)N[C@H](C(=O)N[C@@H](Cc1ccc(O)cc1)C(N)=O)[C@@H](C)O)C(C)C)[C@@H](C)O
notes: Acylated analogue of human amylin; also called compound 22
B2: N^ε1-[2-[2-[2-[[2-[2-[2-[[(4S)-4-carboxy-4-(19-carboxynonadecanoylamino)butanoyl]amino]ethoxy]ethoxy]acetyl]amino]ethoxy]ethoxy]acetyl]-[Arg17,Pro21,Pro27,Glu35 … (peptide)
peptide: K([AEEA-AEEA-γGlu-C20 diacid])CNTATCATQRLANFLRHSSPNFGAIPSSTNVGSETY-NH2
modifications: disulfide 2-7; N-terminus assumed
SMILES: CC[C@H](C)[C@H](NC(=O)[C@H](C)NC(=O)CNC(=O)[C@H](Cc1ccccc1)NC(=O)[C@H](CC(N)=O)NC(=O)[C@@H]1CCCN1C(=O)[C@H](CO)NC(=O)[C@H](CO)NC(=O)[C@H](Cc1c[nH]cn1)NC(=O)[C@H](CCCNC(=N)N)NC(=O)[C@H](CC(C)C)NC(=O)[C@H](Cc1ccccc1)NC(=O)[C@H](CC(N)=O)NC(=O)[C@H](C)NC(=O)[C@H](CC(C)C)NC(=O)[C@H](CCCNC(=N)N)NC(=O)[C@H](CCC(N)=O)NC(=O)[C@@H](NC(=O)[C@H](C)NC(=O)[C@@H]1CSSC[C@H](NC(=O)[C@@H](N)CCCCNC(=O)COCCOCCNC(=O)COCCOCCNC(=O)CC[C@H](NC(=O)CCCCCCCCCCCCCCCCCCC(=O)O)C(=O)O)C(=O)N[C@@H](CC(N)=O)C(=O)N[C@@H]([C@@H](C)O)C(=O)N[C@@H](C)C(=O)N[C@@H]([C@@H](C)O)C(=O)N1)[C@@H](C)O)C(=O)N1CCC[C@H]1C(=O)N[C@@H](CO)C(=O)N[C@@H](CO)C(=O)N[C@H](C(=O)N[C@@H](CC(N)=O)C(=O)N[C@H](C(=O)NCC(=O)N[C@@H](CO)C(=O)N[C@@H](CCC(=O)O)C(=O)N[C@H](C(=O)N[C@@H](Cc1ccc(O)cc1)C(N)=O)[C@@H](C)O)C(C)C)[C@@H](C)O
notes: Acylated analogue of human amylin; also called compound 25
B3: N^ε1-[(4S)-4-carboxy-4-(19-carboxynonadecanoylamino)butanoyl]-[Arg17,Pro21,Pro27,Glu35]-h-amylin (peptide)
peptide: K([γGlu-C20 diacid])CNTATCATQRLANFLRHSSPNFGAIPSSTNVGSETY-NH2
modifications: disulfide 2-7; N-terminus assumed
SMILES: CC[C@H](C)[C@H](NC(=O)[C@H](C)NC(=O)CNC(=O)[C@H](Cc1ccccc1)NC(=O)[C@H](CC(N)=O)NC(=O)[C@@H]1CCCN1C(=O)[C@H](CO)NC(=O)[C@H](CO)NC(=O)[C@H](Cc1c[nH]cn1)NC(=O)[C@H](CCCNC(=N)N)NC(=O)[C@H](CC(C)C)NC(=O)[C@H](Cc1ccccc1)NC(=O)[C@H](CC(N)=O)NC(=O)[C@H](C)NC(=O)[C@H](CC(C)C)NC(=O)[C@H](CCCNC(=N)N)NC(=O)[C@H](CCC(N)=O)NC(=O)[C@@H](NC(=O)[C@H](C)NC(=O)[C@@H]1CSSC[C@H](NC(=O)[C@@H](N)CCCCNC(=O)CC[C@H](NC(=O)CCCCCCCCCCCCCCCCCCC(=O)O)C(=O)O)C(=O)N[C@@H](CC(N)=O)C(=O)N[C@@H]([C@@H](C)O)C(=O)N[C@@H](C)C(=O)N[C@@H]([C@@H](C)O)C(=O)N1)[C@@H](C)O)C(=O)N1CCC[C@H]1C(=O)N[C@@H](CO)C(=O)N[C@@H](CO)C(=O)N[C@H](C(=O)N[C@@H](CC(N)=O)C(=O)N[C@H](C(=O)NCC(=O)N[C@@H](CO)C(=O)N[C@@H](CCC(=O)O)C(=O)N[C@H](C(=O)N[C@@H](Cc1ccc(O)cc1)C(N)=O)[C@@H](C)O)C(C)C)[C@@H](C)O
notes: Acylated analogue of human amylin; also called compound 27
B4: N^ε1-[2-[2-[2-[[(4S)-4-carboxy-4-(19-carboxynonadecanoylamino)butanoyl]amino]ethoxy]ethoxy]acetyl]-[Arg17,Pro21,Pro27,Glu35]-h-amylin (peptide)
peptide: K([AEEA-γGlu-C20 diacid])CNTATCATQRLANFLRHSSPNFGAIPSSTNVGSETY-NH2
modifications: disulfide 2-7; N-terminus assumed
SMILES: CC[C@H](C)[C@H](NC(=O)[C@H](C)NC(=O)CNC(=O)[C@H](Cc1ccccc1)NC(=O)[C@H](CC(N)=O)NC(=O)[C@@H]1CCCN1C(=O)[C@H](CO)NC(=O)[C@H](CO)NC(=O)[C@H](Cc1c[nH]cn1)NC(=O)[C@H](CCCNC(=N)N)NC(=O)[C@H](CC(C)C)NC(=O)[C@H](Cc1ccccc1)NC(=O)[C@H](CC(N)=O)NC(=O)[C@H](C)NC(=O)[C@H](CC(C)C)NC(=O)[C@H](CCCNC(=N)N)NC(=O)[C@H](CCC(N)=O)NC(=O)[C@@H](NC(=O)[C@H](C)NC(=O)[C@@H]1CSSC[C@H](NC(=O)[C@@H](N)CCCCNC(=O)COCCOCCNC(=O)CC[C@H](NC(=O)CCCCCCCCCCCCCCCCCCC(=O)O)C(=O)O)C(=O)N[C@@H](CC(N)=O)C(=O)N[C@@H]([C@@H](C)O)C(=O)N[C@@H](C)C(=O)N[C@@H]([C@@H](C)O)C(=O)N1)[C@@H](C)O)C(=O)N1CCC[C@H]1C(=O)N[C@@H](CO)C(=O)N[C@@H](CO)C(=O)N[C@H](C(=O)N[C@@H](CC(N)=O)C(=O)N[C@H](C(=O)NCC(=O)N[C@@H](CO)C(=O)N[C@@H](CCC(=O)O)C(=O)N[C@H](C(=O)N[C@@H](Cc1ccc(O)cc1)C(N)=O)[C@@H](C)O)C(C)C)[C@@H](C)O
notes: Acylated analogue of human amylin; also called compound 26

Columns and labels:
[1] = molecular target: T1, human calcitonin receptor; assay: ratio IC50 human calcitonin receptor / IC50 human amylin receptor
Experimental: The resulting pellet was resuspended, homogenized and centrifuged (20.000 rpm, 15 min) in a buffer containing 20 mM Na-HEPES and 0.1 mM EDTA (pH 7.4, buffer 2). The resulting pellet was resuspended in buffer 2 and protein concentration was measured (BCA protein Assay, Pierce). The homogenate was kept cold during the whole procedure. The membranes were kept at −80° C. until use. The assay was performed in a 384 well Optiplate (PerkinElmer) in a total volume of 40 ul. Membranes were mixed with SPA beads. Final concentration of membranes 35 ng/μL final and SPA beads was 0.05 mg/well. Test-compounds were dissolved in DMSO and further diluted in assay buffer (50 mM Hepes, pH 7.4, 1 mM CaCl2, 5 mM MgCl₂, 0.1% OA and 0.02% Tween20). […] The final mixture was incubated with shaking at 400 rpm for 120 min at 25° C. prior to centrifugation (1500 rpm, 10 min). Samples were analyzed on TopCounter™ (Packard). The IC₅₀ was calculated using (one site binding competition analysis) GraphPad Prism5 as a measure of receptor affinity.
Membranes were prepared in the following way; the cells were rinsed with PBS and incubated with Versene for approximately 5 min before harvesting. The cells were flushed with PBS and the cell-suspension was centrifuged for 5 min at 1000 rpm. Cells were homogenized (Ultrathurrax) in a buffer containing 20 mM Na-HEPES and 10 mM EDTA (pH 7.4) and centrifuged at 20.000 rpm for 15 min. The resulting pellet was resuspended, homogenized and centrifuged (20.000 rpm, 15 min) in a buffer containing 20 mM Na-HEPES and 0.1 mM EDTA (pH 7.4, buffer 2). The resulting pellet was resuspended in buffer 2 and protein concentration was measured (BCA protein Assay, Pierce). The homogenate was kept cold during the whole procedure. The membranes were kept at −80° C. until use. Assay was performed in a 384 well Optiplate (PerkinElmer) in a total volume of 40 ul. Membranes were mixed with SPA beads.

[2] = molecular target: T2, rat calcitonin receptor; assay: ratio IC50 rat calcitonin receptor / IC50 rat amylin receptor
[3] = molecular target: T2, rat calcitonin receptor; assay: SPA competition vs 125I-calcitonin, membranes with rat CTR (Assay VIII)
[4] = molecular target: T3, rat amylin receptor (rat calcitonin …); assay: SPA competition vs 125I-rat amylin, membranes with rat CTR + rat RAMP3 (Assay VI)

Binder | Ratio hCT/hAmylin binding [1] | Ratio rCT/rAmylin binding [2] | IC50 [3] [nM] | IC50 [4] [nM]
B1 | 12.3 | 28.5 | 62.5 | 2.19
B2 | 56.5 | 37.7 | 131 | 3.48
B3 | 41.3 | 147 | 90.2 | 0.614
B4 | 47.5 | 309 | 152 | 0.491

Source: patent publication US20140087995A1 (published 2014)
